Test results: patent US20250262210A1 (TRUSTEES OF COLUMBIA UNIVERSITY IN THE CITY OF NEW YORK, published 2025)

Columns and labels:
Assay in all cases: IP/MS, LZTR1 wild type-FLAG, U87
SLC4A2 = molecular target: T1, SLC4A2 (human, UniProt P04920 1-1241, limits assumed)
T1 sequence (looked up): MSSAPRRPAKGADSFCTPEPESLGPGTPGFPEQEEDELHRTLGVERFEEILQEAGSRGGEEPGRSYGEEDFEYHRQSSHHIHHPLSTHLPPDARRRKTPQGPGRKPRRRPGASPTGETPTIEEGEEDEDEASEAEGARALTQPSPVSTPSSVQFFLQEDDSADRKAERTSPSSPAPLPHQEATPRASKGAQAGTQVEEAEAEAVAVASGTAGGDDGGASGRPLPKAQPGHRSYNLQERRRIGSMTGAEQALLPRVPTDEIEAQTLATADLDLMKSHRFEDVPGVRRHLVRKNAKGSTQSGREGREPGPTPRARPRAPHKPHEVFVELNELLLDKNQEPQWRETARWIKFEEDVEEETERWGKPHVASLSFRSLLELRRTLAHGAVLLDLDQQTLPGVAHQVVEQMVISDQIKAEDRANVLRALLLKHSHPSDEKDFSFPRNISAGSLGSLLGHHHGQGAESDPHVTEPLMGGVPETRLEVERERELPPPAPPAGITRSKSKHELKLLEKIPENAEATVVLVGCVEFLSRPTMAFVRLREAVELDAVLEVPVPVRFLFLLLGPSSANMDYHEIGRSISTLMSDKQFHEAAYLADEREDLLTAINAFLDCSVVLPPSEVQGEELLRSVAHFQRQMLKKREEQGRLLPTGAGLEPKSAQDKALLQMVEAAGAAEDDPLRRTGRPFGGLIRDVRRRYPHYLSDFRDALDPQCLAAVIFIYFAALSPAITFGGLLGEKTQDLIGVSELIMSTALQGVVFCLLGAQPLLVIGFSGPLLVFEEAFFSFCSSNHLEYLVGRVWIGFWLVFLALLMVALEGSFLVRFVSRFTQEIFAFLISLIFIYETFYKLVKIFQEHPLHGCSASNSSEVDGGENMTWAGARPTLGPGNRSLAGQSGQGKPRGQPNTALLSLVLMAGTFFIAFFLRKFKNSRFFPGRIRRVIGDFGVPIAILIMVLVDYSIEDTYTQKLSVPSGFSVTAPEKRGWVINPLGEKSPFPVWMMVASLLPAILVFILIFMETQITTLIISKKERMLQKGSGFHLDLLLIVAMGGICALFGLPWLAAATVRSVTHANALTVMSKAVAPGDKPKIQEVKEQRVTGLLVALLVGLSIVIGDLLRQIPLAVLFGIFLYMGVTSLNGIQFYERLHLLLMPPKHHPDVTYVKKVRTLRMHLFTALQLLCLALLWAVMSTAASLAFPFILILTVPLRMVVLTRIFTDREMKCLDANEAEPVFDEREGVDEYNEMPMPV
Procedure, shortened: (§1)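 Extracted peptides in 3% acetonitrile/0.1% formic acid ran on a 50 cm C18 column into an Orbitrap Fusion, with MaxQuant identification and spectral counting.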

GTF3C2 = molecular target: T2, GTF3C2 (human, UniProt Q8WUA4 1-911, limits assumed)
T2 sequence (looked up): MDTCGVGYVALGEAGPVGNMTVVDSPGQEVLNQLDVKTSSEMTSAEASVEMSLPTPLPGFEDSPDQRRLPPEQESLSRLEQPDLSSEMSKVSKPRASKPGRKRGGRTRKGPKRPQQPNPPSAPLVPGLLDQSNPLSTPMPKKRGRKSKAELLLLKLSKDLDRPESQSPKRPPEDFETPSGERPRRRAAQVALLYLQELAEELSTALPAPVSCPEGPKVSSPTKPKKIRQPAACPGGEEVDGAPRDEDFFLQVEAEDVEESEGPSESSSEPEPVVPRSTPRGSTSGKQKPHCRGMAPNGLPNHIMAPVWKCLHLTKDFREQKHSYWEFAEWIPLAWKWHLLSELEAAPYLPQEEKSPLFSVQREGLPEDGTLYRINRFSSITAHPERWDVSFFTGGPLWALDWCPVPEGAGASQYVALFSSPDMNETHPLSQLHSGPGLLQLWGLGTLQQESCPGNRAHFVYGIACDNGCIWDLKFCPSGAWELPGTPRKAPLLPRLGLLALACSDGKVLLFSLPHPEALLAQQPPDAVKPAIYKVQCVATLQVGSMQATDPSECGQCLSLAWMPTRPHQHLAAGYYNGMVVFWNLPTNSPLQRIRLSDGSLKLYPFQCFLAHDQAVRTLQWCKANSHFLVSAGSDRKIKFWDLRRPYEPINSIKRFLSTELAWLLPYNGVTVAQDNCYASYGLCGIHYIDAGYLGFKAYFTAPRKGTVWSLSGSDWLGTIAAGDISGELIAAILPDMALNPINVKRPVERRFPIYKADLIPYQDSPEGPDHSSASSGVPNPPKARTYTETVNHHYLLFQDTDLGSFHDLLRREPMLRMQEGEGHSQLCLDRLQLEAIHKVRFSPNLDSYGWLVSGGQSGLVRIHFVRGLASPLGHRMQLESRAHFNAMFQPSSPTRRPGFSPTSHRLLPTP
Procedure, shortened: as §1

RICTOR = RICTOR (human, UniProt Q6R327 1-1708, limits assumed)
Procedure, shortened: as §1

Chain of RICTOR (Q6R327 whole entry): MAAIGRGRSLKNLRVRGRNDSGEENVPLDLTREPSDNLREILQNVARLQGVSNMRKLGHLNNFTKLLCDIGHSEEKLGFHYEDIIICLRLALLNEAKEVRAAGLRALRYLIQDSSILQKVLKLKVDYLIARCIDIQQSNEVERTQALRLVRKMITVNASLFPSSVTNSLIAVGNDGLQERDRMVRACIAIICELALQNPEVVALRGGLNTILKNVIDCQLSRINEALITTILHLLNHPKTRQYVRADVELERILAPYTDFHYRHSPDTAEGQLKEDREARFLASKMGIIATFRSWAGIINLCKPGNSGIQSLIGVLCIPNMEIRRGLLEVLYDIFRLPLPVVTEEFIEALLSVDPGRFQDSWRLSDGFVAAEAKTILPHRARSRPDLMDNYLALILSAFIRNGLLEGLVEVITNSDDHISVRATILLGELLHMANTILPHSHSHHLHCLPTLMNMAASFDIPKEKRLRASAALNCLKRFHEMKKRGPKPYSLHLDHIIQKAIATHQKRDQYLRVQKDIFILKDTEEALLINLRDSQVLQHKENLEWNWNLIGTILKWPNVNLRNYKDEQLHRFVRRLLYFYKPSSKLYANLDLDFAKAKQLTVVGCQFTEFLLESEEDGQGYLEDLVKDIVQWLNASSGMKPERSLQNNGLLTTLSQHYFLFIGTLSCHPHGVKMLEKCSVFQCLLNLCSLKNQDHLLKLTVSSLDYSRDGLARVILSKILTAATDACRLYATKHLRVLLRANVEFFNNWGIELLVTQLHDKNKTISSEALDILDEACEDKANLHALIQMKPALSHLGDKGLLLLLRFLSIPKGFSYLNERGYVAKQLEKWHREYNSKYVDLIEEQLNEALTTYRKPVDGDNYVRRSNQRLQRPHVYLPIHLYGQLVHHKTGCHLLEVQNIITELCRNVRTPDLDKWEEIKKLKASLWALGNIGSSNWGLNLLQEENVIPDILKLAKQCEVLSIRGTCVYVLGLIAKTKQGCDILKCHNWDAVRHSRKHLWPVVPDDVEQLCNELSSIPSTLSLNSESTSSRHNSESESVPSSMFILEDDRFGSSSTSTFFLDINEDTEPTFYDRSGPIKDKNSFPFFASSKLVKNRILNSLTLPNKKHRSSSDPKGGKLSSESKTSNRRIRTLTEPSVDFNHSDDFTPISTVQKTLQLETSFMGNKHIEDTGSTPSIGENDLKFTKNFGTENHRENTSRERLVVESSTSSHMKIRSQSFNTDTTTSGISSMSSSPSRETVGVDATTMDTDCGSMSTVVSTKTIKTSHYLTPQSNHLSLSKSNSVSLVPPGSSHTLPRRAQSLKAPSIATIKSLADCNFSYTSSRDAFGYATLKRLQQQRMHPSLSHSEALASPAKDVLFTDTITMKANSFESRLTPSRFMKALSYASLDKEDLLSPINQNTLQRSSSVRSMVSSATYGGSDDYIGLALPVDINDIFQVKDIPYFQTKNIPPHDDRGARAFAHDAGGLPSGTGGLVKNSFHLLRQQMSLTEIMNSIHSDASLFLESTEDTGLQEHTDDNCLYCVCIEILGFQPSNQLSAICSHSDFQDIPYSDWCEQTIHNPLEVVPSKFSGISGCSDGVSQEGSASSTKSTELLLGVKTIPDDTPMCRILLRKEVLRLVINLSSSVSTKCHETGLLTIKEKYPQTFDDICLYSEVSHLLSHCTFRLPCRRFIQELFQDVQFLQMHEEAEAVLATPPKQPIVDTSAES

binding result (SLC4A2): binds
binding result (GTF3C2): binds
binding result (RICTOR): binds
B1: LZTR1-FLAG (other, human, UniProt Q8N653 1-840, looked up)
chain: MAGPGSTGGQIGAAALAGGARSKVAPSVDFDHSCSDSVEYLTLNFGPFETVHRWRRLPPCDEFVGARRSKHTVVAYKDAIYVFGGDNGKTMLNDLLRFDVKDCSWCRAFTTGTPPAPRYHHSAVVYGSSMFVFGGYTGDIYSNSNLKNKNDLFEYKFATGQWTEWKIEGRLPVARSAHGATVYSDKLWIFAGYDGNARLNDMWTIGLQDRELTCWEEVAQSGEIPPSCCNFPVAVCRDKMFVFSGQSGAKITNNLFQFEFKDKTWTRIPTEHLLRGSPPPPQRRYGHTMVAFDRHLYVFGGAADNTLPNELHCYDVDFQTWEVVQPSSDSEVGGAEVPERACASEEVPTLTYEERVGFKKSRDVFGLDFGTTSAKQPTQPASELPSGRLFHAAAVISDAMYIFGGTVDNNIRSGEMYRFQFSCYPKCTLHEDYGRLWESRQFCDVEFVLGEKEECVQGHVAIVTARSRWLRRKITQARERLAQKLEQEAAPVPREAPGVAAGGARPPLLHVAIREAEARPFEVLMQFLYTDKIKYPRKGHVEDVLLIMDVYKLALSFQLCRLEQLCRQYIEASVDLQNVLVVCESAARLQLSQLKEHCLNFVVKESHFNQVIMMKEFERLSSPLIVEIVRRKQQPPPRTPLDQPVDIGTSLIQDMKAYLEGAGAEFCDITLLLDGHPRPAHKAILAARSSYFEAMFRSFMPEDGQVNISIGEMVPSRQAFESMLRYIYYGEVNMPPEDSLYLFAAPYYYGFYNNRLQAYCKQNLEMNVTVQNVLQILEAADKTQALDMKRHCLHIIVHQFTKVSKLPTLRSLSQQLLLDIIDSLASHISDKQCAELGADI
notes: Expressed in HEK 293T, HeLa or U87 cells; used as cell lysate; also called LZTR1 wild type-FLAG; LZTR1 WT; not shown: FLAG tag at the C-terminus
